Legend:
SEC = biological target: the molecule itself; assay: SEC
crystal structure = biological target: the molecule itself; assay: crystal structure

Row | Protein | stoichiometry N (SEC) | stoichiometry N (crystal structure)
1 | CSpoIISA (His6 tag-free cytosolic domain of SpoIISA) (domain or fragment) FIFLSAYVKKLAGSELETDTREILEENNEMLHMYLNRLKTYQYLLKNEPIHVYYGSIDAYAEGIDKLLKTYADKMNLTASLCHYSTQADKDRLTEHMDDPADVQTRLDRKDVYYDQYGKVVLIPFTIETQNYVIKLTSDSIVTEFDYLLFTSLTSIYDLVLPIEEEGEG | 2 | 
2 | cytoplasmic fragment of SpoIISA (CSpoIISA) as found in the crystal of the CSpoIISA·SpoIISB complex (domain or fragment, selenomethionine-substituted) GSELETDTREILEENNEMLHMYLNRLKTYQYLLKNEPIHVYYGSIDAYAEGIDKLLKTYADKMNLTASLCHYSTQADKDRLTEHMDDPADVQTRLDRKDVYYDQYGKVVLIPFTIETQNYVIKLTSDSIVTEFDYLLFTSLTSIYDLVLPIEEEGEG |  | 2

From publication PMC3057836 (The Journal of Biological Chemistry, 2010)
